Assay results from the supplement of paper PMC12042874.
± gives the uncertainty stated by the source.

Assay: amyloid nucleation score (Sup35N fusion, yeast selection) (log enrichment); library NNK2; higher = more nucleation; inactive = no reads after selection
Procedure, shortened: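 Sup35N was fused to peptides of 20 random codons and expressed in psi-negative yeast, which were induced with 100 μM copper sulfate for 24 hours and then grown on medium lacking adenine and uracil for 7 days at 30°C. Plasmid inserts from input and output were sequenced on Illumina. The nucleation score is the DiMSum log enrichment of output over input reads, centred on the mode score of non-aggregating sequences. Sequences with under 100 input reads were left out, and random libraries had three technical output replicates.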

Substance | amyloid nucleation score
NYIWVLGYSEVGNTIMYTYH | 6.224 ± 0.05
GNGLVMLKTVHLWVLRDVLG | 0.839 ± 0.24
WHCVRVIQRSWCVKEGSKGC | 0.118 ± 0.45
EYSRVLTGVFLIQSYCKFGN | -0.219 ± 0.2
MLVPFRVESMSGTRTCKVTV | 4.96 ± 0.08
SIYFKVIATTSVYRLMPTVW | -0.291 ± 0.74
RNFFPHGFWSLQTKYNVLFM | 5.684 ± 0.05
CVSWRYFMFPCLVSLEMSSS | 3.71 ± 0.085
WCIKANSMSRNVYVEEMGER | -0.143 ± 0.24
SRANMQSRCRLNNQSVYGKL | -0.175 ± 0.45
FSGLSCY | inactive
MGGGNCLVRFKRYEFPFDIP | -1.61 ± 0.54
RVESDTDVIVQIMQWRGVFL | 0.334 ± 0.28
KSQLYNYAVSM | -1.59 ± 0.64
YIYLNEKFCITYMRESWNCC | 0.651 ± 0.39
KHIFFLREVVNYFMRRTKGL | -0.507 ± 0.64
LRLWHDYSFFLNKVSQVHSY | -1.12 ± 1.1
ETMIHTPQELYVMYSPLTQQ | 6.263 ± 0.051
SKFFCVSSVRFRLCVWG | -0.14 ± 1
DANTRGHSCRNCM | 0.195 ± 0.76
CVSVPFYQVCFVGPKMEPLG | 0.636 ± 0.18
GRELRTVRNAGPFDQWVGVS | 5.79 ± 0.086
NFKECNLDCKSHLRNVWLRQ | inactive
RVCPVSG | -0.068 ± 0.79
SVSNVPRGWSLTRGLSTVPG | 0.828 ± 0.22
IFSNLRSFE | 0.657 ± 0.22

Substance | amyloid nucleation score
KLGTLLSFPTVINVANMIQI | 3.8 ± 0.081
RLQRVLS | -0.458 ± 0.42
VYKMIVSRVHC | -1.17 ± 1
HCGCMEQA | 0.486 ± 0.8
AQLRKMSSVNYV | -0.825 ± 1.1
MITWCHIVALSNVGTVVSYN | inactive
FVSLVWKTLKVSRSIVSNFD | 2.74 ± 0.15
FGVRDDILDSWCCTVCFSGK | 0.369 ± 0.65
MIGKRGVFS | inactive
TYLNLLSNAMNVAWFS | 2.83 ± 0.19
NGVLRDHWTMAQTCAGVECS | -0.403 ± 1.1
QGTRAYQSKALTVSIMLMLV | 3.45 ± 0.096
DQDSNSFAQSVVSHNVLVNI | inactive
SMPMGGERIWVIYCRFQVLS | -0.585 ± 0.35
FTMYPITG | 0.311 ± 0.29
RCGFLWCRHFPATSELGCVL | 0.752 ± 0.8
IYSEWLSLVYSLGAPVTLNS | -0.015 ± 0.46
STGIGDNATFSYRISRYSVC | -0.492 ± 0.39
EIFFKCGFLLLGCDRPGRVR | 0.413 ± 0.43
YYYIRCTAVK | -0.495 ± 0.65
NRTTSVWG | -0.889 ± 1
FIDVHMEYRDKTRCWLVLVL | -0.891 ± 0.78
FNVKWMRW | 5.36 ± 0.066
FEFSPQSRCTGFLSVVCMVE | 0.042 ± 0.5
NLDEVFMFTSTHLVIPLESK | -1.6 ± 0.75
KRNLVCAISFLDSRSCRRTA | 0.119 ± 0.24

Substance | amyloid nucleation score
NSVFKGFLNRFRF | 2.32 ± 0.19
TAKLFDISTCKCPD | -0.105 ± 0.79
LGIVVVHWTPIIAGW | -1.11 ± 0.56
NKSGDSQLLRVYYIVLVFMW | -1.08 ± 0.62
SRGSYIPSPLRHSFSVLWRF | -0.785 ± 0.63
DFFFCFRYTDLEQE | -0.195 ± 0.61
CFNIQNFELNRVMNLFYCRY | 6.37 ± 0.075
YLSRWYLKILQVSWRSVHSS | -0.712 ± 0.36
VMFWLPPTSGNSWSDCTHKI | inactive
RKNVYFIFPIISSLYKV | 7.009 ± 0.049
KHSRMYLR | 1.49 ± 0.17
VSDDHFINCFYGQVSQRKVK | inactive
TSAENRLMMAEARKYCVRSF | 3.66 ± 0.087
HWSAS | 1.35 ± 0.47
VLVSLFLPLENYFG | -0.549 ± 1
RSRSYHADWACTVVCLCYS | 4.24 ± 0.066
TDFCSHKTWLSAVGISV | 0.037 ± 0.23
SIWINFLNLWYQCFISSILG | inactive
YVDLKVACILYPYFSGTRQH | 4.96 ± 0.078
FWQNCMALLFRFIMFKRKNV | -1.27 ± 1
GAYNNFIMCKSFVFSFQSGD | 6.33 ± 0.063
SEGIADVLSVSCWCYPCRPY | -1.21 ± 1.1
GLNYIARMSQN | 0.392 ± 0.3
SWWAY | 0.69 ± 0.62
HFGAFMHCVCTRLKMS | -0.08 ± 0.61
GMESSMVRNVEHVKERVYIE | 3.6 ± 0.1

Substance | amyloid nucleation score
LMSYVSSRNVSLQFIFVLPL | 5.55 ± 0.069
IWGGKDLFGGQDWNTLSYLP | -0.283 ± 0.6
MCDLDDRKTTLSPWLRSSLG | 1.14 ± 0.35
LSYLML | -1.03 ± 0.78
EILYFSTAFYLSTWEDTIFT | inactive
PAIYILLWAYSRSSACWLTA | inactive
TWRLACRFLL | -0.12 ± 0.56
SASQDATPHGCGIGISLNTR | 2.79 ± 0.068
VPEFCVSSCNSVNLRASE | 1.78 ± 0.14
NSVRSV | inactive
ALQDMTI | -0.176 ± 0.36
CGRSRKRCIRASRSGSLNMC | 0.293 ± 0.53
SCNQCYFFQEVKRSVLVIKT | 3.59 ± 0.066
SWFRFCMYWFSDCRNILGS | 4.58 ± 0.051
TIQAYICPLVSKAYWWGVEY | 6.427 ± 0.032
DLSRTRGTEKASRSVWLRSM | 3.97 ± 0.048
VLTALVYVEITF | 5.41 ± 0.066
MFSNQADFDTNLVSLYDKTW | -0.825 ± 0.4
YCINGLGIGTELCVFTTKWM | -0.479 ± 0.3
LVNACFCACLRNNSFKCDYY | 6.966 ± 0.066
TIILMGYLFWICRQSVR | -0.449 ± 0.38
PHRKV | -0.536 ± 0.76
LVKTVDYAALPRICDVGRGQ | 3.96 ± 0.075
YVSWCCGRFISYPVC | 0.321 ± 0.19
YNYLLLSMVPSSILSRSYVQ | -0.161 ± 1.1
YTGFWFIFTKGHTE | inactive

Substance | amyloid nucleation score
NSSWSAPSLCLCM | 9.527 ± 0.045
QYVEFPLMLTET | 0.025 ± 0.79
SLVCM | -0.713 ± 0.29
SYGNEFMM | 0.363 ± 0.57
RNFMVDRSGWQSKYVTHSLE | -0.324 ± 0.6
KSVTVGADHNVDVGVAEMIR | 1.79 ± 0.32
PCWCSVLVL | 1.51 ± 0.41
YFVVL | -1.78 ± 0.62
TYLWSLGYVSFQL | -0.206 ± 0.79
VYTVVYGYNWISCDHFSWDT | 7.47 ± 0.08
CIGYLMEIHVFSNDAKVYYL | 6.24 ± 0.038
YMRGITHSAGCSSLAINVEH | -1.23 ± 1.1
MYGTTRLVLWAVIDWFEGVG | -0.718 ± 0.49
LNTIFTKIIGFSA | -1.52 ± 0.49
HHFNLPMKKGRFVSLGFSLV | -0.623 ± 1
WIILGTSSAVWRTHDYLA | 3.43 ± 0.06
NWMCMRCGVFVVLAVCLFWS | 3.42 ± 0.075
RSLGTRAFAVRFRTSCWINV | -0.317 ± 0.46
YLLLLIMDLFKGRACHPRHA | inactive
TDGVLFQLVDSKFV | -1.25 ± 0.64
FLVYYINFIAAKCRPKSNLR | inactive
NVYVESSWVLARVIWRFYFD | -0.722 ± 0.62
